Assay [1] deals with H3K9 methylated (H3K9me) histones in chromatin (S. pombe (endogenous in S. pombe cells)). As to the kind of experiment: live-cell single-molecule time-lapse imaging; residence times of stationary PAmCherry-tagged molecules in living WT S. pombe; 200-ms integration time with different dark delay times; kdiss from a linear fit that separates photobleaching.
The target is the same in assay [2]. The assay is described as above. The source holds these as a separate data set.
Assay [3] has the same target. In words: live-cell single-molecule tracking (NOBIAS mobility states, Bayesian Synthetic Likelihood rate inference); PAmCherry-tagged protein photoactivated and tracked in the nucleus of living S. pombe, 40-ms frames, room temperature; Chp2 from the nmt81 promoter, Epe1 from its own or the nmt1 promoter; WT cells, with clr4Δ and swi6Δ cells as comparison.
The target in assay [4] is H3K9me3 mononucleosome. As to the kind of experiment: native gel or EMSA; varying concentrations of Chp2 with 50 nM mononucleosomes; 20 mM HEPES pH 7.5, 4 mM Tris, 80 mM KCl, 0.1% Igepal CA-630, 0.2 mM EDTA, 2 mM DTT, 10% glycerol; 4°C, 30 min; unbound nucleosome band quantified; apparent affinity (K1/2). (In general: A gel shift assay detects complexes by their altered migration in electrophoresis.)

For assay [5], the target named is H3K9 methylated (H3K9me) histones in chromatin (S. pombe (endogenous in S. pombe cells)). As to the kind of experiment: live-cell single-molecule tracking (NOBIAS mobility states, Bayesian Synthetic Likelihood rate inference); as a2, but PAmCherry-Chp2 expressed from the nmt41 promoter (5x higher level).
Assay [6] has the same target. In words: live-cell single-molecule time-lapse imaging; as a4, but PAmCherry-Chp2-low in swi6Δ cells.

By koff is commonly meant the first-order rate constant of dissociation. Lower therefore signals slow dissociation.

Sequence of PAmCherry-Swi6 (P40381 whole entry): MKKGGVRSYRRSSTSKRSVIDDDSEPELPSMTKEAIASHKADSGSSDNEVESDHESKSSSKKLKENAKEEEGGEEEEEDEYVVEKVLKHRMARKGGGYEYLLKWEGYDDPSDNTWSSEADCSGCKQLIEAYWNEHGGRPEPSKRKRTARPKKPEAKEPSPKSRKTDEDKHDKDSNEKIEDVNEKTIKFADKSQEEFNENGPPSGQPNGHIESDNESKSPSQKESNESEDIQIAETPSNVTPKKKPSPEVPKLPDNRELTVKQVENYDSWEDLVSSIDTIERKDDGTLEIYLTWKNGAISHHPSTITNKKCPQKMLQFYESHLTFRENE
Sequence of PAmCherry-Chp2 (O42934 whole entry): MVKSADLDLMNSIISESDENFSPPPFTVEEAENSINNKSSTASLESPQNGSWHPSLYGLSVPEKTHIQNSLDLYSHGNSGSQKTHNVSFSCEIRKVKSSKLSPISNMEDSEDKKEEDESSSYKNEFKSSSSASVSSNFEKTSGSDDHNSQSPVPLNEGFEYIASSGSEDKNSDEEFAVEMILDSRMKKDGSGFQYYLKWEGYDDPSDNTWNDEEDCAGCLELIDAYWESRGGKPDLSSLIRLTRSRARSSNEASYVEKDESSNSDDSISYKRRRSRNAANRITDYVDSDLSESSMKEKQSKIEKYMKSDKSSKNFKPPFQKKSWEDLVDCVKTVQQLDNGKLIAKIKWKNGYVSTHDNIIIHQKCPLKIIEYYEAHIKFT
Sequence of Chp2-WT (recombinant) (O42934 whole entry): as above

In assay [1], “PAmCherry-Swi6 (from UniProt P40381 1-328) (natural protein)” gave an average dwell time of 2.2 s and a koff of 0.454 s⁻¹. In assay [2], this substance had an average dwell time of 2.22 s.

“PAmCherry-Chp2 W199A (from UniProt O42934 1-380) (natural protein)” registered a weight fraction of the low mobility (H3K9me-bound) state in assay [3] of 10%.

Take “Chp2-WT (recombinant) (from UniProt O42934 1-380) (natural protein)”: the specificity for H3K9me over H3K9me0 nucleosomes in assay [4] was 2 fold.

Take “PAmCherry-Chp2 (from UniProt O42934 1-380) (natural protein)”: the weight fraction of the low mobility (H3K9me-bound) state in assay [5] is greater than 90%; in assay [3], greater than 92%. For the same substance, the results for the average dwell time in assay [1] and in assay [6] were 3.85 s and 3.72 s, respectively. Moreover, the values for the koff in assay [1], in assay [3] and in assay [6] were 0.26 s⁻¹, 0.479 s⁻¹ and 0.269 s⁻¹, respectively.

The values above are taken from PMC11472046.
